Experimental data reported in US20240076396A1 (Regeneron, published 2024).

Columns and labels:
[1] = target: T1, human GITR expressed on the cell surface (human, UniProt Q9Y5U5 26-241); assay: cell-based or functional assay
T1 sequence: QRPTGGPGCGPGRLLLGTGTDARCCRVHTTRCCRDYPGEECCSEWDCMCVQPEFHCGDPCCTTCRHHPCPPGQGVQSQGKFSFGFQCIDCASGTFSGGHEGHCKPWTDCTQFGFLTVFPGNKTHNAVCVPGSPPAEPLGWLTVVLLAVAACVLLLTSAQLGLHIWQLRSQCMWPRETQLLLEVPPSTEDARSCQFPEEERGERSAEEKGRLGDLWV

[2] = target: cynomolgus monkey GITR expressed on the cell surface (Macaca fascicularis (cynomolgus monkey)); assay: cell-based or functional assay
[3] = target: T1, human GITR expressed on the cell surface; assay: cell-based or functional assay; remark: listed apart in the source
[4] = target: T2, Jurkat/hCD20 cells (human CD20, no GITR; negative control cell line) (human, UniProt P11836 1-297); assay: flow cytometry on Jurkat/hCD20 cells
T2 construct: whole, on cells; Control cell line without engineered GITR; the only named engineered protein on it is hCD20
T2 sequence (looked up): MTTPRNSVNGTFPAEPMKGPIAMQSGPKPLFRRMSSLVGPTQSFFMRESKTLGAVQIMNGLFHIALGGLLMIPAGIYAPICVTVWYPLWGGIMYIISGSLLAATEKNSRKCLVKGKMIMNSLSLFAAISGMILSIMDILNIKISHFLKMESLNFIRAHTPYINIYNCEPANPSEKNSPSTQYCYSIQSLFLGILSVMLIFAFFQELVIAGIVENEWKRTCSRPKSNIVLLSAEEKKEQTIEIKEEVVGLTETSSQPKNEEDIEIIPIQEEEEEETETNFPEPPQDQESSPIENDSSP
Protocol: FIG. 5A, FIG. 5B, and FIG. 5C depict cell-surface binding of mAb1 and IgG1 isotype control at a range of concentrations (18 pM to 300 nM) on Jurkat/hCD20 (FIG. 5A), Jurkat/hCD20/hGITR (FIG. 5B), and Jurkat/hCD20/MfGITR (FIG. 5C) cells. Binding was detected using an Alexa647-labeled anti-human IgG by flow cytometry. Fluorescence intensity was plotted as geometric MFI. h, Human; Mf, Macaca fascicularis (cynomolgus monkey).
(§1) Flow cytometry was used to evaluate mAb1 binding to Jurkat/hCD20/hGITR cells and Jurkat/hCD20/MfGITR cells. Jurkat/hCD20 cells were used as a negative control cell line for GITR binding. Cells were added to a 96-well V-bottom plate (2×10⁵ to 4×10⁵ cells/well) and incubated in Fc block solution, followed by successive incubation on ice with primary antibody (mAb1 or IgG1 isotype control) at final concentrations ranging from 18 pM to 300 nM and a secondary antibody (AF647-conjugated anti-human IgG) at 5 μg/mL. […] Data were analyzed with Flow.lo software. For EC₅₀ (effective concentration at 50% activity) determinations, measured geometric MFI values were analyzed using a 4-parameter logistic equation over a 9-point response curve with GraphPad Prism. The fold binding was determined by taking the ratio of the highest MFI on the curve to the MFI of the wells containing secondary antibody only.

[5] = target: T3, hGITR.mmH (soluble monomeric recombinant human GITR ectodomain protein) (human); assay: SPR Biacore T-200; purified antibody captured on anti-human Fc; 10 nM hGITR.mmH
T3 construct: also called monomeric human GITR
T3 chain: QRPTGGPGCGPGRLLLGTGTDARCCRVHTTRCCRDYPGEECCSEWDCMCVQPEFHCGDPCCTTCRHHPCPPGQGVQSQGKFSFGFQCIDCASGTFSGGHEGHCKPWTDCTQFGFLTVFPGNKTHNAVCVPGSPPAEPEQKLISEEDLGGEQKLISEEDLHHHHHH
Protocol: For purified antibodies, Biacore experiments were performed as follows. Using a Biacore T-200 instrument, antibodies were captured for 30 seconds at a flow rate of 8 uL/min on a CM5 anti-humanFc-coupled surface. Approximately 120 RU of each antibody were captured. 10 nM hGITR.mmH (soluble monomeric hGITR, SEQ ID NO: 45) or 5 nM hGITR.mFc (dimeric Macaca fasicularis GITR, SEQ ID NO: 46) were injected over this surface for 5 minutes at a flow rate of 50 uL/min. Dissociation was measured for 10 min. The KD and t_{1/2} were calculated by fitting the double-referenced sensorgrams to a 1:1 binding model.

[6] = target: T2, Jurkat/hCD20 cells (human CD20, no …); assay: flow cytometry on Jurkat/hCD20 control cells; max MFI over secondary antibody alone
Protocol: as §1, with “μg/mL. Cells were then stained with LIVE/DEAD Fixable Green Dead Cell Stain according to the manufacturer's instructions.” for “μg/mL.”
^a The maximum MFI was the highest mean MFI value within the concentration range tested (18 pM to 300 nM). ^b Fold binding was calculated as the maximum MFI above background (secondary antibody alone). h, Human; Mf, Macaca fascicularis (cynomolgus monkey); ND, Not determined because concentration-dependent binding was not observed

B1: mAb1 (antibody, human IgG1, kappa, V domains shown)
VH: QVQLQESGPGLVKPSETLSLTCIVSGGSISGYFWNWIRQPPGKGLEWIGYIYYSGTTIYNPSLKSRFTISLDTSKNQFSLKLTSVTAADTAVYYCARESYDPSPRYFDHWGQGTLVTVSS
VL: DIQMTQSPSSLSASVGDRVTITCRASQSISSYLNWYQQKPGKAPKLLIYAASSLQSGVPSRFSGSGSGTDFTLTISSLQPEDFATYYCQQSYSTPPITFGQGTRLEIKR
notes: Human IgG1; N101D variant of CompAb1; also called N101D Variant; N101D
[1]
  EC50, ADCC against Jurkat/hCD20/hGITR, Donor 6500V NK cells: 0.0122 nM
  EC50, ADCC against Jurkat/hCD20/hGITR, Donor 6700R NK cells: 0.013 nM
[2]
  EC50, ADCC against Jurkat/hCD20/MfGITR, Donor 6500V NK cells: 0.0108 nM
  EC50, ADCC against Jurkat/hCD20/MfGITR, Donor 6700R NK cells: 0.0121 nM
[3]
  EC50, ADCC against human primary CD8+ T-cells Donor 0200R, NK Donor 05001: 0.139 nM
  EC50, ADCC against human primary CD8+ T-cells Donor 0400N, NK Donor 04003: 0.0764 nM
  EC50, ADCC against human primary CD8+ T-cells Donor 0400N, NK Donor 05001: 0.116 nM
  EC50, ADCC against human primary CD8+ T-cells Donor 5100X, NK Donor 04003: 0.128 nM
  EC50, ADCC against human primary CD8+ T-cells Donor 5100X, NK Donor 05001: 0.0951 nM
  EC50, ADCC against human primary Tregs Donor 0200R, NK Donor 04003: 0.0399 nM
  EC50, ADCC against human primary Tregs Donor 0200R, NK Donor 05001: 0.0647 nM
  EC50, ADCC against human primary Tregs Donor 0400N, NK Donor 04003: 0.0372 nM
  EC50, ADCC against human primary Tregs Donor 0400N, NK Donor 05001: 0.0449 nM
  EC50, ADCC against human primary Tregs Donor 5100X, NK Donor 04003: 0.0888 nM
  EC50, ADCC against human primary Tregs Donor 5100X, NK Donor 05001: 0.0834 nM
[4]
  binding result: no binding (tested: 18 pM to 300 nM)
[5]
  Kd: 1.18 nM
  t1/2: 7.58 min
[6]
  Fold Binding: 1.06 fold
